Reference: patent US20180141989A1 (BOARD OF REGENTS OF THE UNIVERSITY OF OKLAHOMA, published 2018)
Where no end group is shown, it is not given here.

Legend:
[1] = target: MBP-RAMP2 ECD [L106R]-(GS)5-CLR ECD-H6 fusion protein (human) (UniProt O60895); assay: FP (anisotropy) competition: displaces FITC-Ahx-AM(37-52)NH2[S45W,Q50W] probe (7 nM) from MBP-RAMP2 ECD[L106R]-(GS)5-CLR ECD-H6 (110 nM) [I-K) panel K]
[2] = target: T1, MBP-RAMP1 ECD-(GS)5-CLR ECD-H6 fusion protein (human, UniProt O60894 24-111; Q16602 29-144); assay: FP (anisotropy) competition: displaces FITC-Ahx-AM(37-52)NH2[S45W,Q50W] probe (7 nM) from MBP-RAMP1 ECD-(GS)5-CLR ECD-H6 (15 nM) [I-J) lower graph]
T1 construct: range 24-111;range 29-144; Tethered ECD fusion made in E. coli; used in the FP assay at 15 nM; also called MBP-hRAMP1.24-111-(Gly-Ser)5-hCLR.29-144-H6
Protocol: (§1) Fluorescence polarization peptide binding assay. […] The reactions (50 μL) were incubated for 2 hours at room temperature to reach equilibrium, and the anisotropy was measured in black half-area 96-well plates using a BMG LABTECH's POLARstar® Omega plate reader (Ortenberg, Germany). The reaction buffer was 50 mM HEPES, pH 7.5, 150 mM NaCl, 0.5 mg/ml fatty acid-free BSA, 0.5 mM EDTA, 0.5 mM maltose. KI values were calculated using nonlinear regression fitting of the competition curves to the exact analytical equations of Roehrl et al. (Biochemistry (2004) 43:16056-66) using GraphPad Prism 5.0 (GraphPad Software, San Diego Calif.).

[3] = target: MBP-RAMP2 ECD [L106R]-(GS)5-CLR ECD-H6 fusion protein (human) (UniProt O60895); assay: ratio of FP KI values at the two ECD complexes
[4] = target: T1, MBP-RAMP1 ECD-(GS)5-CLR ECD-H6 fusion …; assay: FP competition vs FITC-AM W/W probe, purified ECD fusion
Protocol: as §1
(§2) The large size difference between the MBP-RAMP ECD-CLR ECD fusion proteins (˜65 kDa) and the probe (˜2.5 kDa) ensures a significant anisotropy difference between bound and free states of the probe. […] Kd values for the probe at each of the tethered ECD fusion proteins were determined in equilibrium saturation binding experiments (data not shown), and KI values were determined for unlabeled peptides in equilibrium competition experiments (Table 1; FIGS. 2-5). The data were analyzed according to exact analytical equations using non-linear regression curve fitting in GraphPad Prism 5.0 (GraphPad Software) via user-defined equations.

[5] = target: MBP-RAMP2 ECD [L106R]-(GS)5-CLR ECD-H6 fusion protein (human) (UniProt O60895); assay: as above
[6] = target: MBP-RAMP2 ECD [L106R]-(GS)5-CLR ECD-H6 fusion protein (human) (UniProt O60895); assay: FP (anisotropy) competition: displaces FITC-Ahx-AM(37-52)NH2[S45W,Q50W] probe (7 nM) from MBP-RAMP2 ECD[L106R]-(GS)5-CLR ECD-H6 (110 nM) [A-C) panel B]
[7] = target: T1, MBP-RAMP1 ECD-(GS)5-CLR ECD-H6 fusion …; assay: ratio of FP KI values at the two ECD complexes
Protocol: as §1, §2

[8] = target: T1, MBP-RAMP1 ECD-(GS)5-CLR ECD-H6 fusion …; assay: FP (anisotropy) competition: displaces FITC-Ahx-AM(37-52)NH2[S45W,Q50W] probe (7 nM) from MBP-RAMP1 ECD-(GS)5-CLR ECD-H6 (15 nM) [F-H) panel F]
Protocol: as §1

[9] = target: T1, MBP-RAMP1 ECD-(GS)5-CLR ECD-H6 fusion …; assay: FP (anisotropy) competition: displaces FITC-Ahx-AM(37-52)NH2[S45W,Q50W] probe (7 nM) from MBP-RAMP1 ECD-(GS)5-CLR ECD-H6 (15 nM) [F-H) panel G]
Protocol: as §1

[10] = target: T1, MBP-RAMP1 ECD-(GS)5-CLR ECD-H6 fusion …; assay: AlphaLISA competition: displaces Biotin-CGRP probe (50 nM) from the RAMP1-CLR ECD fusion protein (5 nM)
Protocol: (§3) The probes were as described in Moad and Pioszak (Protein Sci. (2013) 22:1775-85). The reactions were incubated for 5 hours at room temperature to reach equilibrium, and the luminescence was measured in white 384-well plates using a BMG LABTECH's POLARstar® Omega plate reader (Ortenberg, Germany). The reaction buffer was 50 mM MOPS, pH 7.4, 150 mM NaCl, 7 mg/ml fatty acid-free BSA, and the streptavidin-coated donor beads and MBP-antibody coated acceptor beads were at 15 μg/ml each. IC₅₀ values were calculated using nonlinear regression fitting of the competition curves to a three-parameter, one-site competitive binding equation in GraphPad Prism 5.0 (GraphPad Software, San Diego Calif.).

[11] = target: MBP-RAMP2 ECD [L106R]-(GS)5-CLR ECD-H6 fusion protein (human) (UniProt O60895); assay: AlphaLISA competition: displaces Biotin-AM probe (25 nM) from the RAMP2-CLR ECD fusion protein (5 nM)
[12] = target: T1, MBP-RAMP1 ECD-(GS)5-CLR ECD-H6 fusion …; assay: FP (anisotropy) competition: displaces FITC-Ahx-AM(37-52)NH2[S45W,Q50W] probe (7 nM) from MBP-RAMP1 ECD-(GS)5-CLR ECD-H6 (15 nM) [A-C) panel B]
Protocol: as §1

[13] = target: MBP-RAMP2 ECD [L106R]-(GS)5-CLR ECD-H6 fusion protein (human) (UniProt O60895); assay: AlphaLISA competition vs Biotin-AM probe
[14] = target: MBP-RAMP2 ECD [L106R]-(GS)5-CLR ECD-H6 fusion protein (human) (UniProt O60895); assay: FP (anisotropy) competition: displaces FITC-Ahx-AM(37-52)NH2[S45W,Q50W] probe (7 nM) from MBP-RAMP2 ECD[L106R]-(GS)5-CLR ECD-H6 (110 nM) [A-C) panel A]
[15] = target: MBP-RAMP2 ECD [L106R]-(GS)5-CLR ECD-H6 fusion protein (human) (UniProt O60895); assay: AlphaLISA or AlphaScreen competition assays
[16] = target: MBP-RAMP2 ECD [L106R]-(GS)5-CLR ECD-H6 fusion protein (human) (UniProt O60895); assay: FP (anisotropy) competition: displaces FITC-Ahx-AM(37-52)NH2[S45W,Q50W] probe (7 nM) from MBP-RAMP2 ECD[L106R]-(GS)5-CLR ECD-H6 (110 nM) [G-H) panel G]
[17] = target: T1, MBP-RAMP1 ECD-(GS)5-CLR ECD-H6 fusion …; assay: FP (anisotropy) competition: displaces FITC-Ahx-AM(37-52)NH2[S45W,Q50W] probe (7 nM) from MBP-RAMP1 ECD-(GS)5-CLR ECD-H6 (15 nM) [A-C) panel C]
Protocol: as §1
as §1, with “Single representative experiments conducted with duplicate samples are shown.” for “Fluorescence polarization peptide binding assay.”, “reactions” for “reactions (50 μL)”

[18] = target: T2, MBP-RAMP1 ECD-(GS)5-CTR ECD-H6 fusion protein (human, UniProt O60894 27-118; P30988 34-141, limits assumed); assay: AlphaLISA competition vs Biotin-AC413 probe, purified AMY1 ECD fusion
T2 construct: extracellular domain; CTR-based proteins were produced in HEK293T cells (N-glycosylated); also called RAMP1-CTR ECD; RAMP1-CTR
Protocol: as §3, with “A single representative experiment conducted with duplicate samples is shown. […]” for “The probes were as described in Moad and Pioszak (Protein Sci. (2013) 22:1775-85).”, “BSA” for “BSA,”

[19] = target: T1, MBP-RAMP1 ECD-(GS)5-CLR ECD-H6 fusion …; assay: FP (anisotropy) competition: displaces FITC-Ahx-AM(37-52)NH2[S45W,Q50W] probe (7 nM) from MBP-RAMP1 ECD-(GS)5-CLR ECD-H6 (15 nM) [D-E) panel D]
Protocol: as §1
as §1, with “Single representative experiments conducted with duplicate samples are shown.” for “Fluorescence polarization peptide binding assay.”, “reactions” for “reactions (50 μL)”

[20] = target: T1, MBP-RAMP1 ECD-(GS)5-CLR ECD-H6 fusion …; assay: FP (anisotropy) competition: displaces FITC-Ahx-AM(37-52)NH2[S45W,Q50W] probe (7 nM) from MBP-RAMP1 ECD-(GS)5-CLR ECD-H6 (15 nM) [D-E) panel E]
Protocol: as §1
as §1, with “Single representative experiments conducted with duplicate samples are shown.” for “Fluorescence polarization peptide binding assay.”, “reactions” for “reactions (50 μL)”

Sequence of MBP-RAMP2 ECD [L106R]-(GS)5-CLR ECD-H6 fusion protein (human) (O60895 other isoform, or with tags, fused parts or gaps L106R L106R): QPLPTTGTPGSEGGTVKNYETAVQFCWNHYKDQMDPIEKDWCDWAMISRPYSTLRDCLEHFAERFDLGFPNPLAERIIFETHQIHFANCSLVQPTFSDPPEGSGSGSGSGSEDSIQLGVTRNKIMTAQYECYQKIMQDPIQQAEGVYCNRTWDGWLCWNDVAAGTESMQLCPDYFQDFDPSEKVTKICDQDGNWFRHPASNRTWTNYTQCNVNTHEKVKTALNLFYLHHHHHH
T1 sequence (O60894 other isoform, or with tags, fused parts or gaps limits assumed, form in doubt): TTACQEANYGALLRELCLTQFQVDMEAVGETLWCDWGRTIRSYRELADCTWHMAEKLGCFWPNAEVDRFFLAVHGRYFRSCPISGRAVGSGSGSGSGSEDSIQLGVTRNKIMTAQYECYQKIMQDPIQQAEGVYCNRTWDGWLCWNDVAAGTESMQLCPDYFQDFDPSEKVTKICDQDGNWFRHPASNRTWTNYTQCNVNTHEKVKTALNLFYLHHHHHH
T2 sequence (O60894 other isoform, or with tags, fused parts or gaps limits assumed): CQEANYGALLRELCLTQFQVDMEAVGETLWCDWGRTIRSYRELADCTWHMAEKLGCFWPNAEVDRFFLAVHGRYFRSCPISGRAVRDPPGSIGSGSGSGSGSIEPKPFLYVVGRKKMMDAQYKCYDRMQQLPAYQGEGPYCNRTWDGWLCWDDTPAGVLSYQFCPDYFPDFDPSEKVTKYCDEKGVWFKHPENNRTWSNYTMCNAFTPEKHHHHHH

Row | Binder | Ki [4] | pKI [4] | Ki [5] | pKI [5] | also measured
1 | DKWNVAPRSKISPWGY-NH2 (also called AM(37-52)NH2 [D39W, Q50W]) [AM(37-52) D39W/Q50W] |  |  |  |  | IC50 (read off the curve) [1]: 300 nM; IC50 (read off the curve) [2]: ~400 nM
2 | DKDNVAPRSKISPFGY-NH2 [AM(37-52)NH2 [Q50F]] | 10500 nM | 4.98 | 2140 nM | 5.67 | Receptor Selectivity (fold, over RAMP1-CLR ECD) [3]: 5 fold; IC50 (read off the curve) [6]: 4000 nM
3 | DKDNVAPRTLISPWGY-NH2 [AM(37-52)NH2[S45T, K46L, Q50W]] | 65.6 nM | 7.18 | 1570 nM | 5.8 | Receptor Selectivity (fold, over RAMP2-CLR ECD) [7]: 24 fold; IC50 (read off the curve) [8]: ~200 nM
4 | DKDNVAPRWLMSPWGF-NH2 [AM(37-52)NH2 [S45W, K46L, I47M, Q50W, Y52F]] | 0.78 nM | 9.11 |  |  | IC50 (read off the curve) [9]: ~10 nM
5 | DKDNVAPRSKISPWGY-NH2 [AM(37-52)NH2 [Q50W]] | 501 nM | 6.3 | 316 nM | 6.5 | IC50 [10]: 400 nM; IC50 [11]: 44 nM; IC50 (read off the curve) [12]: ~1000 nM; IC50 (read off the curve) [6]: 600 nM; fold increase in affinity (over AM(37-52)NH2, implied) [13]: 100 fold
6 | DKDNVAPRWKISPWGY-NH2 (also called S45W/Q50W double mutant) [AM(37-52)NH2 [S45W, Q50W]] | 44.7 nM | 7.35 | 81.3 nM | 7.09 | IC50 [10]: 17 nM; IC50 [11]: 20 nM; IC50 (read off the curve) [14]: 200 nM; IC50 (read off the curve) [12]: ~100 nM
7 | DKDNVAPRSKISPQGY-NH2 [AM(37-52)NH2] |  |  | 20400 nM | 4.69 | IC50 [11]: 5000 nM; IC50 [15]: 5000 to 15000 nM
8 | DKDNVAPRWLIGPWGF-NH2 [AM(37-52)NH2 [S45W, K46L, S48G, Q50W, Y52F]] |  |  | 1250 nM | 5.9 | IC50 (read off the curve) [16]: 200 nM
9 | FVPTDVGPWSF-NH2 [CGRP(27-37)NH2 [N31D, S34P, K35W, A36S]] | 1.32 nM | 8.88 | 2450 nM | 5.61 | Receptor Selectivity (fold, over RAMP2-CLR ECD) [7]: 1860 fold; IC50 (read off the curve) [17]: ~10 nM; IC50 [18]: 260 nM
10 | FVPTDTGPWGF-NH2 [CGRP(27-37)NH2 [N31D, V32T, S34P, K35W, A36G]] | 6.85 nM | 8.16 |  |  | IC50 (read off the curve) [19]: ~30 nM
11 | FVPTDTGPWSF-NH2 [CGRP(27-37)NH2 [N31D, V32T, S34P, K35W, A36S]] | < 1 nM | > 9 | 2750 nM | 5.56 | Receptor Selectivity (fold, over RAMP2-CLR ECD) [7]: ≥ 2750 fold; IC50 (read off the curve) [20]: ~10 nM
